Where a chain is given by its changes, count along the chain named. Names may count otherwise.
T1: EsCas13d, nuclease-dead (Eubacterium siraeum, UniProt B0MS50, R295A;H300A;R849A;H854A)
T1 sequence: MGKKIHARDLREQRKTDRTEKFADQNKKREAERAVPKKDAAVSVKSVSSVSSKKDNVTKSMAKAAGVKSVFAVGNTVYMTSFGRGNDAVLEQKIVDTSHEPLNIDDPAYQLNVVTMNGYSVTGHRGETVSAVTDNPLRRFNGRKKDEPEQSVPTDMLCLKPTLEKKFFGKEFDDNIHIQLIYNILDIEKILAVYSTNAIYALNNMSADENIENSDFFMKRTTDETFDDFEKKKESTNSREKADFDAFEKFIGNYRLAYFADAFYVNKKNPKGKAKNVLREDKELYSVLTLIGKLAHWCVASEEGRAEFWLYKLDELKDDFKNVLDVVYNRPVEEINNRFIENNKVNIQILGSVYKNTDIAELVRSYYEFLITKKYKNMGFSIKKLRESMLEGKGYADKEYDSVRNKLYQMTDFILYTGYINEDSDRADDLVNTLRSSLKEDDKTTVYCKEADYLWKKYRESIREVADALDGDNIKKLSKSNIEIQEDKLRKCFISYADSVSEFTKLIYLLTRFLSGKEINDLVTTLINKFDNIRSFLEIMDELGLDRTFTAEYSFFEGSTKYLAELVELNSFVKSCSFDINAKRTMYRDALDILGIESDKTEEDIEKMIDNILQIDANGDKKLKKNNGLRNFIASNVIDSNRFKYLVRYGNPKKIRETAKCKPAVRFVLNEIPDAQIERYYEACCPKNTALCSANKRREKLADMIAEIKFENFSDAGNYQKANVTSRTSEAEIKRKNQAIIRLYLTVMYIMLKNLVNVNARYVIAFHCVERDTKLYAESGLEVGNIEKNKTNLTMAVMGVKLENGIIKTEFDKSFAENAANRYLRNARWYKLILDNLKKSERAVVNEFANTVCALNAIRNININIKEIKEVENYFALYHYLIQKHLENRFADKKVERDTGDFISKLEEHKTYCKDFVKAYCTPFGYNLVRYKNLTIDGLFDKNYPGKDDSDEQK

B1: target 2 MT 5'PFS GGA 3'PFS AGG (mixed)
RNA 1: CACCCGUGCAAAAUUGCAGGGGUCUAAAACCUUCUCCAAAUUGUUUCAUCCU
RNA 2: GGGAAUGGAUCCACAUCUACGAAUUCGGAAGGAUGAAACAAUUUGGAGAAGAGGAGAUCGGAAGAGCACACGU
B2: target 2 MT 5'PFS UGA 3'PFS UUC (mixed)
RNA 1: B1 RNA 1
RNA 2: B1 RNA 2 with G27U, A52U, G53U, G54C
B3: target 2 MT 5'PFS UAC 3'PFS UUG (mixed)
RNA 1: B1 RNA 1
RNA 2: B1 RNA 2 with G27U, G28A, A29C, A52U, G53U
B4: target 2 MT 5'PFS GUA 3'PFS UAC (mixed)
RNA 1: B1 RNA 1
RNA 2: B1 RNA 2 with G28U, A52U, G53A, G54C
B5: target 2 MT 5'PFS UUU 3'PFS CAC (mixed)
RNA 1: B1 RNA 1
RNA 2: B1 RNA 2 with G27U, G28U, A29U, A52C, G53A, G54C
B6: target 2 MT 5'PFS UUG 3'PFS AAG (mixed)
RNA 1: B1 RNA 1
RNA 2: B1 RNA 2 with G27U, G28U, A29G, G53A
B7: target 2 MT 5'PFS AGG 3'PFS AUU (mixed)
RNA 1: B1 RNA 1
RNA 2: B1 RNA 2 with G27A, A29G, G53U, G54U
B8: target 2 MT 5'PFS GUU 3'PFS UGU (mixed)
RNA 1: B1 RNA 1
RNA 2: B1 RNA 2 with G28U, A29U, A52U, G54U
B9: target 2 MT 5'PFS UUU 3'PFS CAA (mixed)
RNA 1: B1 RNA 1
RNA 2: B1 RNA 2 with G27U, G28U, A29U, A52C, G53A, G54A
B10: target 2 MT 5'PFS UUG 3'PFS UUA (mixed)
RNA 1: B1 RNA 1
RNA 2: B1 RNA 2 with G27U, G28U, A29G, A52U, G53U, G54A
B11: target 2 MT 5'PFS AAA 3'PFS AGC (mixed)
RNA 1: B1 RNA 1
RNA 2: B1 RNA 2 with G27A, G28A, G54C
B12: target 2 MT 5'PFS UUU 3'PFS CAG (mixed)
RNA 1: B1 RNA 1
RNA 2: B1 RNA 2 with G27U, G28U, A29U, A52C, G53A
B13: target 2 MT 5'PFS UUG 3'PFS AAC (mixed)
RNA 1: B1 RNA 1
RNA 2: B1 RNA 2 with G27U, G28U, A29G, G53A, G54C
B14: target 2 MT 5'PFS UAC 3'PFS UUA (mixed)
RNA 1: B1 RNA 1
RNA 2: B1 RNA 2 with G27U, G28A, A29C, A52U, G53U, G54A
B15: target 2 MT 5'PFS GGU 3'PFS AGG (mixed)
RNA 1: B1 RNA 1
RNA 2: B1 RNA 2 with A29U
B16: target 2 MT 5'PFS GUA 3'PFS UAG (mixed)
RNA 1: B1 RNA 1
RNA 2: B1 RNA 2 with G28U, A52U, G53A
B17: target 2 MT 5'PFS AAC 3'PFS CGG (mixed)
RNA 1: B1 RNA 1
RNA 2: B1 RNA 2 with G27A, G28A, A29C, A52C
B18: target 2 MT 5'PFS GGU 3'PFS AGC (mixed)
RNA 1: B1 RNA 1
RNA 2: B1 RNA 2 with A29U, G54C
B19: target 2 MT 5'PFS GAU 3'PFS UUU (mixed)
RNA 1: B1 RNA 1
RNA 2: B1 RNA 2 with G28A, A29U, A52U, G53U, G54U
B20: target 2 MT 5'PFS GGC 3'PFS AAU (mixed)
RNA 1: B1 RNA 1
RNA 2: B1 RNA 2 with A29C, G53A, G54U
B21: target 2 MT 5'PFS UUG 3'PFS AAA (mixed)
RNA 1: B1 RNA 1
RNA 2: B1 RNA 2 with G27U, G28U, A29G, G53A, G54A
B22: target 2 MT 5'PFS UUU 3'PFS CAU (mixed)
RNA 1: B1 RNA 1
RNA 2: B1 RNA 2 with G27U, G28U, A29U, A52C, G53A, G54U
B23: target 2 MT 5'PFS GGA 3'PFS AGC (mixed)
RNA 1: B1 RNA 1
RNA 2: B1 RNA 2 with G54C
B24: target 2 MT 5'PFS GUA 3'PFS UAA (mixed)
RNA 1: B1 RNA 1
RNA 2: B1 RNA 2 with G28U, A52U, G53A, G54A
B25: target 2 MT 5'PFS UUG 3'PFS AAU (mixed)
RNA 1: B1 RNA 1
RNA 2: B1 RNA 2 with G27U, G28U, A29G, G53A, G54U
B26: target 2 MT 5'PFS AAA 3'PFS AGG (mixed)
RNA 1: B1 RNA 1
RNA 2: B1 RNA 2 with G27A, G28A
B27: target 2 MT 5'PFS UAC 3'PFS UUU (mixed)
RNA 1: B1 RNA 1
RNA 2: B1 RNA 2 with G27U, G28A, A29C, A52U, G53U, G54U
B28: target 2 MT 5'PFS UCU 3'PFS AGC (mixed)
RNA 1: B1 RNA 1
RNA 2: B1 RNA 2 with G27U, G28C, A29U, G54C
B29: target 2 MT 5'PFS AAC 3'PFS CGC (mixed)
RNA 1: B1 RNA 1
RNA 2: B1 RNA 2 with G27A, G28A, A29C, A52C, G54C
B30: target 2 MT 5'PFS UGA 3'PFS UUA (mixed)
RNA 1: B1 RNA 1
RNA 2: B1 RNA 2 with G27U, A52U, G53U, G54A
B31: target 2 MT 5'PFS GGA 3'PFS AGA (mixed)
RNA 1: B1 RNA 1
RNA 2: B1 RNA 2 with G54A
B32: target 2 MT 5'PFS GGU 3'PFS AGA (mixed)
RNA 1: B1 RNA 1
RNA 2: B1 RNA 2 with A29U, G54A
B33: target 2 MT 5'PFS AGG 3'PFS CGA (mixed)
RNA 1: B1 RNA 1
RNA 2: B1 RNA 2 with G27A, A29G, A52C, G54A
B34: target 1 A1C,A14G (mixed)
RNA 1: CACCCGUGCAAAAAUGCAGGGGUCUAAAACUGAGCGGAUAACCUCUCUAUGG
RNA 2: GGGAAUGGAUCCACAUCUACGAAUUCGUACCAUAGAGGGGUUAUCCGCUCCCCGAGAUCGGAAGAGCACACGU
B35: target 1 C4G,C7U (mixed)
RNA 1: B34 RNA 1
RNA 2: B34 RNA 2 with G38A, C45U, C48G, C51A
B36: target 1 A1G,A14G (mixed)
RNA 1: B34 RNA 1
RNA 2: B34 RNA 2 with C51G
B37: target 1 insA 3' of 8,insU 3' of 2 (mixed)
RNA 1: B34 RNA 1
RNA 2: GGGAAUGGAUCCACAUCUACGAAUUCGUACCAUAGAGAGGUUAUACCGCUCUACCGAGAUCGGAAGAGCACACGU

Target: T1, EsCas13d, nuclease-dead
Assay: crRNA (strand 1, pre-loaded); Mg2+; 40 mM Tris-HCl pH 7.5, 150 mM NaCl, 6 mM MgCl2, 1 mM DTT, 0.1% Tween-20, 0.2 mg/ml BSA; 25 C; 10 min per concentration, then washed
Conditions: tags: His6-TwinStrep-SUMO cleaved; N-terminal SNAP kept (SNAP-Surface 488); label: 3' end held by stalled T7 RNA polymerase

| Binder | Kd [nM] |
| --- | --- |
| B1 | 8.4 ± 0.6 |
| B2 | 26 ± 7 |
| B3 | 8 ± 1.4 |
| B4 | 7.7 ± 0.7 |
| B5 | 7.5 ± 1 |
| B6 | 9.6 ± 0.7 |
| B7 | 4.8 ± 0.8 |
| B8 | 21 ± 2.3 |
| B9 | 7.6 ± 1 |
| B10 | 29 ± 7 |
| B11 | 4.2 ± 1.5 |
| B12 | 5 ± 0.4 |
| B13 | 9.8 ± 1.2 |
| B14 | 11.1 ± 2.3 |
| B15 | 14.4 ± 1.3 |
| B16 | 11 ± 1.8 |
| B17 | 3.2 ± 0.5 |
| B18 | 13.8 ± 1.9 |
| B19 | 47 ± 13 |

| Binder | Kd [nM] |
| --- | --- |
| B20 | 8.5 ± 0.9 |
| B21 | 6.7 ± 0.6 |
| B22 | 6.8 ± 0.8 |
| B23 | 7.3 ± 0.7 |
| B24 | 5.5 ± 0.6 |
| B25 | 9.8 ± 1.2 |
| B26 | 4.7 ± 0.9 |
| B27 | 11.9 ± 1.9 |
| B28 | 11 ± 2.3 |
| B29 | 4.7 ± 1.1 |
| B30 | 10.7 ± 1.9 |
| B31 | 8.7 ± 1.1 |
| B32 | 10.6 ± 1.5 |
| B33 | 4.5 ± 0.5 |
| B34 | 25 ± 4 |
| B35 | 3.78 ± 0.31 |
| B36 | 14.3 ± 0.8 |
| B37 | 22.5 ± 1.4 |
